The values that follow are results of earlier work, collected in PMC7522120.

In this series the target is Folate receptor alpha (Homo sapiens) (UniProt P15328).
Sequence of Folate receptor alpha (Homo sapiens) (P15328 25-234): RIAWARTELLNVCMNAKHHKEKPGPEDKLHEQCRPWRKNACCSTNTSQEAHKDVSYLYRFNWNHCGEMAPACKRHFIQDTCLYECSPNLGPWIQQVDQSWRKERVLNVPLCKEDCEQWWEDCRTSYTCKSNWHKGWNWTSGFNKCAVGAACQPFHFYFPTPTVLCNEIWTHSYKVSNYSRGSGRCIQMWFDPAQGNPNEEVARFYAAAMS

By Kd is commonly meant the equilibrium constant for the complex coming apart. Turning to farletuzumab, the Kd is 2 nM.
